According to paper PMC10632514 (Nature Communications, 2023):

Biological target: T1, MPER peptide (wild type, for epitope mapping) (HIV-1 HXB2)
T1 construct: also called wild-type MPER (WT); source: synthetic peptide
T1 chain: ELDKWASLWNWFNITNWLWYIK
Assay: SPR
Conditions: both partners purified

Binder | binding result
rmAb 460 IgG1 (antibody, V domains shown) VH: EVQLQQSGAELVKPGASVKLSCTASGFNIKDTYMHWVKQRPEQGLEWIGRIDPANGNTKYDPKFQGKATITADTSSNTAYLQLSSLTSEDTAVYFCTRSRGYFGNYYFDYWGQGTTLTVSS VL: QIVLTQSPAVMSASPGERVTMTCSASSSVSYMYWYQQKPRSSPKPWIYLTSNLASGVPARFSGSGSGTSYSLTISSMEAEDAATYYCQQWSSIPLTFGAGTKLELK | binds
rmAb 235 IgG1 (antibody, V domains shown) VH: QVQLQQSGTDLVRPGTSVKVSCKASGYAFTTYFIEWVKQRPGQGLEWIGVINPGSGIPNYNEMFKGKATLTADKSSSTAYLHLSSLTSDDSAVYFCARAPYYYGSSYYYFDVWGAGTTVTVSS VL: DIVMSQSPSSLAVSVGEKVTMSCKSSQSLLYSSNQKNYLAWYQQKPGQSPKLLIYWASTRDSGVPDRFTGSGSGTDFTLTISSVKAEDLAVYCCQQYYNYPFTFGAGTKLEIK | binds
